Measured values from IntAct's records for PubMed 16388599.

B1: Tyrosine-protein phosphatase non-receptor type 1 (Homo sapiens), P18031 (parent)
chain: MEMEKEFEQIDKSGSWAAIYQDIRHEASDFPCRVAKLPKNKNRNRYRDVSPFDHSRIKLHQEDNDYINASLIKMEEAQRSYILTQGPLPNTCGHFWEMVWEQKSRGVVMLNRVMEKGSLKCAQYWPQKEEKEMIFEDTNLKLTLISEDIKSYYTVRQLELENLTTQETREILHFHYTTWPDFGVPESPASFLNFLFKVRESGSLSPEHGPVVVHCSAGIGRSGTFCLADTCLLLMDKRKDPSSVDIKKVLLEMRKFRMGLIQTADQLRFSYLAVIEGAKFIMGDSSVQDQWKELSHEDLEPPPEHIPPPPRPPKRILEPHNGKCREFFPNHQWVKEETQEDKDCPIKEEKGSPLNAAPYGIESMSQDTEVRSRVVGGSLRGAQAASPAKGEPSLPEKDEDHALSYWKPFLVNMCVATVLTAGAYLCYRFLFNSNT

Variants of: B1
Details: with cav1_human CAV1, Q03135
cav1_human CAV1, Q03135, sequence (Q03135 whole entry): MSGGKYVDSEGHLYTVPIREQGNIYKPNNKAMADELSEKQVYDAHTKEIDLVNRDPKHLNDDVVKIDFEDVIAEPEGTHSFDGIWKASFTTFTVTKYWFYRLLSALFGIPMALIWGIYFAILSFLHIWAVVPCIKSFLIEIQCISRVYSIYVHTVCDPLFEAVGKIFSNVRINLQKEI

| effect of a mutation on the interaction | Variant |
| --- | --- |
| disrupting interaction | D181A |
